Measurements: publication PMC4855518 (Nature, 2016)

Biological target: G. thermodenitrificans SecYE (Geobacillus thermodenitrificans NG80-2, UniProt A4IJK8;A4IJH4)
Assay: SEC

B1: nanobody AYC08 (VHH)
VHH: QVQLVETGGGLVQPGGSLRLSCGASGSIFNMYAMGWYRQAPGKQREVVARIATDDSTMYPDSVKGRFTISRDNAKNTVYLQMNSLKPEDTAVYYCYYQRTVMSQPYWGQGTQVTVSS
binding result: binds
